The target in test [1] is T1, Recombinant human DLL4-Fc (human, UniProt Q9NR61 27-522, limits assumed).
T1 construct: also called hDLL4; hDLL4-Fc; not shown: Fc portion
The test can be described thus: HTRF bridging assay: Europium cryptate-labeled hVEGF165 and d2-labeled hDLL4-Fc; signal needs both bound at once. The method, then: (§1) To characterize the binding capabilities of certain antibodies and/or antibody mixtures to both VEGF and DLL4, homogeneous time resolved fluorescence (HTRF) assays were performed. Antibodies tested were anti-VEGF/anti-DLL4 bispecific antibodies 219R45-MB-21M18 and 219R45-MB-21R79, parental antibodies 219R45 (anti-VEGF), 21M18 (anti-DLL4), 21R79 (anti-DLL4), a combination of 219R45 and 21M18, or a combination of 219R45 and 21R79. The antibodies or antibody mixtures were serially diluted 2-fold from 3000 nM to 2.9 nM in binding buffer (1×PBS, 0.1% gelatin, 0.1% Polysorbate 20, 400 mM potassium fluoride) and placed in a white 96-well plate. An equal volume of solution containing 4 μg/ml of d2-labeled hDLL4-Fc and 21.4 ng/ml Europium crypate-labeled hVEGF₁₆₅ was added to each well for a final volume of 100 μl (final concentrations of acceptor and donor fluorophores were 2 μg/ml and 10.7 ng/ml, respectively). The assay plates were incubated for 2 hours to overnight and read on a SpectraMax M5e Microplate reader (Molecular Devices, Sunnyvale Calif.) at an excitation wavelength of 314 nm.

The target in test [2] is T2, Recombinant mouse VEGF165 (mouse, UniProt Q00731-2 27-190).
T2 construct: also called mVEGF
T2 sequence (looked up): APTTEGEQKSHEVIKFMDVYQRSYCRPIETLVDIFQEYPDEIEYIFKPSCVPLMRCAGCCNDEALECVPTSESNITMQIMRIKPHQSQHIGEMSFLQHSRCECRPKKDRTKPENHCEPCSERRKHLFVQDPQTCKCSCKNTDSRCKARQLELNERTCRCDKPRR
The test can be described thus: SPR (Biacore 2000), biotinylated mouse VEGF165 on streptavidin chip, antibody as analyte. The protocol:
(§2) The KDs of parental antibodies anti-VEGF 219R45 (IgG format), anti-DLL4 21R79 (IgG format), anti-DLL4 21M18 (IgG format) and bispecific antibodies 219R45-MB-21M18 and 219R45-MB-21R79 were determined using a Biacore 2000 system from Biacore LifeSciences (GE Healthcare). Recombinant human DLL4-Fc or mouse DLL4-Fc proteins were immobilized on CM5 carboxyl chips using standard amine-based chemistry (NHS/EDC) and blocked with ethanolamine Recombinant human VEGF₁₆₅ or mouse VEGF₁₆₅ were biotinylated and immobilized on streptavidin chips. The antibodies were serially diluted 2-fold from 100 nM to 0.78 nM in HBS-P (0.01M HEPES pH7.4, 0.15M NaCl, 0.005% v/v Polysorbate 20). For each antibody, all 8 dilutions were sequentially injected over a specific chip. Kinetic data were collected over time and were fit using the simultaneous global fit equation to yield affinity constants (KD values) for each bispecific antibody.
Background: SPR reads the build-up and loss of mass on a sensor chip optically.

Test [3] has as its target T3, Recombinant human VEGF165 (human, UniProt P15692-4 27-191).
T3 construct: also called hVEGF; hVEGF165
The test can be described thus: SPR (Biacore 2000), biotinylated human VEGF165 on streptavidin chip, antibody as analyte. The method, then:
as §2

Test [4] deals with T3, Recombinant human VEGF165. In words: HTRF bridging assay: Europium cryptate-labeled hVEGF165 and d2-labeled hDLL4-Fc; signal needs both bound at once. The method, then:
as §1
On the technique in general: In TR-FRET formats the signal depends on donor and acceptor labels being close together.

In test [5] the target is T1, Recombinant human DLL4-Fc. The test can be described thus: SPR (Biacore 2000), human DLL4-Fc amine-coupled on CM5 chip, antibody as analyte. The method, then:
as §2

Test [6] concerns the target T4, biotin-DLL4-hFc (UniProt Q9NR61 27-522, limits assumed, biotinylated (site not stated)).
T4 construct: not shown: human Fc (hFc)
The test can be described thus: bispecific sandwich ELISA: antibody pre-incubated with 2 ug/ml biotin-DLL4-hFc, captured on VEGF-coated plate, detected with streptavidin-HRP. The method, then: (§3) FIG. 7. Bispecific antibody ELISA. Bispecific antibodies 219R45-MB-21M18, 219R45-MB-21R79, 219R45-MB-21R75, and 219R45-MB-21R83 were diluted in blocking buffer (lx PBS, 0.1% gelatin, 0.1% Polysorbate-20, pH 7.4) containing 2 μg/ml biotin-DLL4-hFc. The antibodies were serially diluted 3-fold from 500 ng/ml to 0.008 ng/ml. The antibody samples were incubated for 2 hours in blocking buffer containing the biotin-DLL4-hFc. After incubation, the antibody samples were transferred to a VEGF-coated assay plate (100 ul/well) and incubated for 2 hours. Streptavidin-HRP was added to each well and incubated for 1 hr. TMB substrate was added to the wells with a 10 minute color development and the reaction was stopped with 2M sulfuric acid. Absorbance was read at 450-650 nm and the data analyzed using the 4-parameter fit within the Softmax Pro analysis program.
as §3, with “VEGF (ATGEN, South Korea) was coated onto Nunc maxisorb plates at 2 ug/ml (100 μl/well) and incubated overnight at 2-8° C. Bispecific” for “FIG. 7. Bispecific antibody ELISA. Bispecific”, “to the” for “to a”, “Streptavidin-HRP (Jackson ImmunoResearch, West Grove, Pa.)” for “Streptavidin-HRP”, “analysis program (Molecular Devices, Sunnyvale, Calif.).” for “analysis program.”

The target of test [7] is T1, Recombinant human DLL4-Fc. The test can be described thus: SPR (Biacore 2000), human DLL4-Fc amine-coupled on CM5 chip, antibody as analyte. The protocol:
as §2
Several additional anti-DLL4 antibodies were identified that had binding affinities intermediate to the KDs of 21M18 and 21R79. Two of these anti-DLL4 antibodies were used to produce anti-VEGF/anti-DLL4 bispecific antibodies 219R45-MB-21R75 and 219R45-MB-21R83. Using the Biacore 2000 system as described above, the KDs of the bispecific antibodies 219R45-MB-21R75 and 219R45-MB-21R83 to human DLL4 were determined.
The source holds these as a separate data set.

For test [8], the target named is T4, biotin-DLL4-hFc. The test can be described thus: Bispecific bridging ELISA: antibody pre-incubated with biotin-DLL4-hFc, captured on VEGF (ATGEN)-coated plate, streptavidin-HRP; potency relative to a reference anti-VEGF/anti-DLL4 bispecific antibody. The protocol: as §3, with “VEGF (ATGEN, South Korea) was coated onto Nunc maxisorb plates at 2 ug/ml (100 μl/well) and incubated overnight at 2-8° C. Bispecific” for “FIG. 7. Bispecific antibody ELISA. Bispecific”, “to the” for “to a”, “Streptavidin-HRP (Jackson ImmunoResearch, West Grove, Pa.)” for “Streptavidin-HRP”, “analysis program (Molecular Devices, Sunnyvale, Calif.).” for “analysis program.”

Numbering of substitutions follows the chain as printed. Read-outs that look alike come from different tables or passages of the source. A value given as a limit tells only on which side of the number the result lay.

T1 sequence (Q9NR61 27-522 limits assumed): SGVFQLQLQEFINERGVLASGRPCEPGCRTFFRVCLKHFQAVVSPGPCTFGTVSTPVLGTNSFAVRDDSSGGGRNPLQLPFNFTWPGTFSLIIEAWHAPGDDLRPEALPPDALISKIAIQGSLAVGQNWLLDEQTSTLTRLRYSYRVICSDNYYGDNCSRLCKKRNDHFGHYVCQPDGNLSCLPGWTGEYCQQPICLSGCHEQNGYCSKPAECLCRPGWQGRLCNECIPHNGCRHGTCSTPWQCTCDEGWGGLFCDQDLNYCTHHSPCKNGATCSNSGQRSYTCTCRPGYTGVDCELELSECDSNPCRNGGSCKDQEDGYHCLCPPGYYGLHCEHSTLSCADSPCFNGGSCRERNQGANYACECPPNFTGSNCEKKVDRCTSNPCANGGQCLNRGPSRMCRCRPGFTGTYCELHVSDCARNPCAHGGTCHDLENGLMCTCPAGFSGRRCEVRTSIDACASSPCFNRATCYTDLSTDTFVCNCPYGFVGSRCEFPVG
T4 sequence (Q9NR61 27-522 limits assumed): as above

B1: anti-VEGF antibody 219R45 (parental, IgG format) (antibody, V domains shown)
VH: QVQLVQSGAEVKKPGASVKVSCKASGYTFTNYWMHWVRQAPGQGLEWMGDINPSNGRTSYKEKFKRRVTLSVDKSSSTAYMELSSLRSEDTAVYFCTIHYDDKYYPLMDYWGQGTLVTVSS
VL: DIVMTQSPDSLAVSLGERATISCRASESVDNYGISFMKWFQQKPGQPPKLLIYAASNQGSGVPDRFSGSGSGTDFTLTISSLQAEDVAVYYCQQSKEVPWTFGGGTKVEIKR
notes: Tested as the bivalent parental antibody in IgG format; also called parental anti-VEGF antibody 219R45
A word on the Kd: it is the concentration at which binding is half-saturated. Turning to B1, the binding result in test [1] is given as “no binding”. For the same molecule, the Kd in test [2] was 22.9 nM; in test [3], 0.67 nM.

B2: anti-DLL4 antibody 21R79 (parental, IgG format) (antibody, V domains shown)
VH: QVQLVQSGAEVKKPGASVKISCKASGYSFTAYYIHWVKQAPGQGLEWIGYIANYNRATNYNQKFKGRVTFTTDTSTSTAYMELRSLRSDDTAVYYCARDYDYDVGMDYWGQGTLVTVSS
VL: B1 VL
notes: Tested as the parental antibody in IgG format
B2: the binding result in test [4] is “no binding”; in test [2] it was “no binding (tested: 100 nM (highest concentration injected))”. For the same molecule, the Kd in test [5] is under 0.1 nM.

B3: anti-DLL4 antibody 21M18 (parental, IgG format) (antibody, V domains shown)
VH: B2 VH with A52S, N53S, R56G
VL: DIVMTQSPDSLAVSLGERATISCRASESVDNYGISFMKWFQQKPGQPPKLLIYAASNQGSGVPDRFSGSGSGTDFTLTISSLQAEDVAVYYCQQSKEVPWTFGGGTKVEIK
notes: Tested in IgG format; also called anti-hDLL4 antibody 21M18
B3: the binding result in test [4] is listed as “no binding”; in test [2], “no binding (tested: 100 nM (highest concentration injected))”. The Kd in test [5] is under 0.1 nM.

B4: anti-VEGF/anti-DLL4 bispecific antibody 219R45-MB-21R83 (bispecific antibody, human IgG2)
heavy 1: QVQLVQSGAEVKKPGASVKVSCKASGYTFTNYWMHWVRQAPGQGLEWMGDINPSNGRTSYKEKFKRRVTLSVDKSSSTAYMELSSLRSEDTAVYFCTIHYDDKYYPLMDYWGQGTLVTVSSASTKGPSVFPLAPCSRSTSESTAALGCLVKDYFPEPVTVSWNSGALTSGVHTFPAVLQSSGLYSLSSVVTVPSSNFGTQTYTCNVDHKPSNTKVDKTVERKCCVECPPCPAPPVAGPSVFLFPPKPKDTLMISRTPEVTCVVVDVSHEDPEVQFNWYVDGVEVHNAKTKPREEQFNSTFRVVSVLTVVHQDWLNGKEYKCKVSNKGLPAPIEKTISKTKGQPREPQVYTLPPSREKMTKNQVSLTCLVKGFYPSDIAVEWESNGQPENNYKTTPPMLKSDGSFFLYSKLTVDKSRWQQGNVFSCSVMHEALHNHYTQKSLSLSPGK
heavy 2: QVQLVQSGAEVKKPGASVKISCKASGYSFTAYYIHWVKQAPGQGLEWIGYISNYNRATNYNQKFKGRVTFTTDTSTSTAYMELRSLRSDDTAVYYCARDYDYDVGMDYWGQGTLVTVSSASTKGPSVFPLAPCSRSTSESTAALGCLVKDYFPEPVTVSWNSGALTSGVHTFPAVLQSSGLYSLSSVVTVPSSNFGTQTYTCNVDHKPSNTKVDKTVERKCCVECPPCPAPPVAGPSVFLFPPKPKDTLMISRTPEVTCVVVDVSHEDPEVQFNWYVDGVEVHNAKTKPREEQFNSTFRVVSVLTVVHQDWLNGKEYKCKVSNKGLPAPIEKTISKTKGQPREPQVYTLPPSREEMTKNQVSLTCLVEGFYPSDIAVEWESNGQPENNYKTTPPMLDSDGSFFLYSELTVDKSRWQQGNVFSCSVMHEALHNHYTQKSLSLSPGK
light: DIVMTQSPDSLAVSLGERATISCRASESVDNYGISFMKWFQQKPGQPPKLLIYAASNQGSGVPDRFSGSGSGTDFTLTISSLQAEDVAVYYCQQSKEVPWTFGGGTKVEIKRTVAAPSVIFPPSDEQLKSGTASVVCLLNNFYPREAKVQWKVDNALQSGNSQESVTEQDSKDSTYSLSSTLTLSKADYEKHKVYACEVTHQGLSSPVTKSFNRGEC
notes: Monovalent/bispecific IgG2 heterodimer with charge-modified CH3 domains and two identical light chains
In general, EC50 (read off the curve) refers to the concentration giving half of the maximal effect. B4: in the test with biotin-DLL4-hFc [6], the “EC50 (read off the curve)” value is about 1 ng/mL. For the same molecule, the Kd in test [7] amounted to 1.3 nM. Besides, the “Relative Potency (%)” value with biotin-DLL4-hFc [8] was 222%.

B5: anti-VEGF/anti-DLL4 bispecific antibody 219R45-MB-21M18 (bispecific antibody, human IgG2)
heavy 1: B4 heavy 1
heavy 2: B4 heavy 2 with N53S, R56G
light: B4 light
notes: Monovalent/bispecific (MB) IgG2 heterodimer with charge-modified CH3 domains and two identical light chains
In the case of B5, the Kd in test [5] was found to be 16 nM; in test [2] it was 25.5 nM; in test [7] it was 16 nM; in test [3], 0.36 nM. Further, in the test with biotin-DLL4-hFc [6], the “EC50 (read off the curve)” value was about 5 ng/mL. In the test with biotin-DLL4-hFc [8], the “Relative Potency (%)” value was 67%.

B6: anti-VEGF/anti-DLL4 bispecific antibody 219R45-MB-21R75 (bispecific antibody, human IgG2)
heavy 1: B4 heavy 1
heavy 2: B4 heavy 2 with S52A, N53G, N55K, R56D
light: B4 light
notes: as for B4
Turning to B6, in the test with biotin-DLL4-hFc [6], the “EC50 (read off the curve)” value was about 0.8 ng/mL. Further, the Kd in test [7] stood at 5.1 nM. Moreover, the “Relative Potency (%)” value in the test with biotin-DLL4-hFc [8] turned out to be 422%.

For the origin of these results see US20180305449A1 (ONCOMED PHARMACEUTICALS, published 2018).
